Publication PMC6128908, “Potent PDZ-Domain PICK1 Inhibitors that Modulate Amyloid Beta-Mediated Synaptic Dysfunction” (Scientific Reports, 2018)

Target: PICK1 PDZ domain with an additional C-terminal fusion (NKLQQSAV), oxidized, bCPA-treated dimer (UniProt Q9NRD5)
Assay: crystal structure; dimeric bCPA-treated PICK1 PDZ with compound 1o; space group P3_(2), one disulfide bridged dimer per asymmetric unit; 1.69 Å

Substance: PICK1 PDZ domain with an additional C-terminal fusion (NKLQQSAV), oxidized, bCPA-treated dimer (from UniProt Q9NRD5 1-105) (domain or fragment)
- stoichiometry N: 2
